{"source": "patent US20200199231A1", "about": "(Genmab, published 2020)", "binders": {"B1": {"name": "bsIgG1-huCLB-T3/4-FEALxCD20-11B8-FEAR (bispecific antibody)", "heavy 1": "EVQLVESGGGLVKPGGSLRLSCAASGFTFSSYGMFWVRQAPGKGLEWVATISRYSRYIYYPDSVKGRFTISRDNAKNSLYLQMNSLRAEDTAVYYCARRPLYGSSPDYWGQGTLVTVSSASTKGPSVFPLAPSSKSTSGGTAALGCLVKDYFPEPVTVSWNSGALTSGVHTFPAVLQSSGLYSLSSVVTVPSSSLGTQTYICNVNHKPSNTKVDKRVEPKSCDKTHTCPPCPAPEFEGGPSVFLFPPKPKDTLMISRTPEVTCVVVAVSHEDPEVKFNWYVDGVEVHNAKTKPREEQYNSTYRVVSVLTVLHQDWLNGKEYKCKVSNKALPAPIEKTISKAKGQPREPQVYTLPPSREEMTKNQVSLTCLVKGFYPSDIAVEWESNGQPENNYKTTPPVLDSDGSFLLYSKLTVDKSRWQQGNVFSCSVMHEALHNHYTQKSLSLSPGK", "VL 1": "EIVLTQSPATLSLSPGERATLSCSASSSVTYVHWYQQKPGQAPRLLIYDTSKLASGIPARFSGSGSGTDFTLTISSLEPEDFAVYYCFQGSGYPLTFGSGTKLEMR", "heavy 2": "EVQLVQSGGGLVHPGGSLRLSCTGSGFTFSYHAMHWVRQAPGKGLEWVSIIGTGGVTYYADSVKGRFTISRDNVKNSLYLQMNSLRAEDMAVYYCARDYYGAGSFYDGLYGMDVWGQGTTVTVSSASTKGPSVFPLAPSSKSTSGGTAALGCLVKDYFPEPVTVSWNSGALTSGVHTFPAVLQSSGLYSLSSVVTVPSSSLGTQTYICNVNHKPSNTKVDKRVEPKSCDKTHTCPPCPAPEFEGGPSVFLFPPKPKDTLMISRTPEVTCVVVAVSHEDPEVKFNWYVDGVEVHNAKTKPREEQYNSTYRVVSVLTVLHQDWLNGKEYKCKVSNKALPAPIEKTISKAKGQPREPQVYTLPPSREEMTKNQVSLTCLVKGFYPSDIAVEWESNGQPENNYKTTPPVLDSDGSFFLYSRLTVDKSRWQQGNVFSCSVMHEALHNHYTQKSLSLSPGK", "VL 2": "EIVLTQSPATLSLSPGERATLSCRASQSVSSYLAWYQQKPGQAPRLLIYDASNRATGIPARFSGSGSGTDFTLTISSLEPEDFAVYYCQQRSDWPLTFGGGTKVEIK", "notes": "also called huCLB-T3/4x11B8; bsIgG1-huCLB-3/4-FEALxCD20-11B8-FEAR"}, "B2": {"name": "bsIgG1-huCD3-H1L1-FEALxCD20-7D8-FEAR (bispecific antibody)", "heavy 1": "not shown", "light": "not shown", "heavy 2": "EVQLVESGGGLVQPDRSLRLSCAASGFTFHDYAMHWVRQAPGKGLEWVSTISWNSGTIGYADSVKGRFTISRDNAKNSLYLQMNSLRAEDTALYYCAKDIQYGNYYYGMDVWGQGTTVTVSSASTKGPSVFPLAPSSKSTSGGTAALGCLVKDYFPEPVTVSWNSGALTSGVHTFPAVLQSSGLYSLSSVVTVPSSSLGTQTYICNVNHKPSNTKVDKRVEPKSCDKTHTCPPCPAPEFEGGPSVFLFPPKPKDTLMISRTPEVTCVVVAVSHEDPEVKFNWYVDGVEVHNAKTKPREEQYNSTYRVVSVLTVLHQDWLNGKEYKCKVSNKALPAPIEKTISKAKGQPREPQVYTLPPSREEMTKNQVSLTCLVKGFYPSDIAVEWESNGQPENNYKTTPPVLDSDGSFFLYSRLTVDKSRWQQGNVFSCSVMHEALHNHYTQKSLSLSPGK", "VL": "B1 VL 2 with D93N, L96I, G100Q, K103R, V104L", "notes": "Made by 2-MEA-induced Fab-arm exchange; also called CD3xCD20; CD3x7D8"}, "B3": {"name": "bsIgG1-huCD3-H1L1-FEALxCD20-11B8-FEAR (bispecific antibody)", "heavy 1": "not shown", "light": "not shown", "heavy 2": "B1 heavy 2", "VL": "B1 VL 2", "notes": "also called CD3x11B8; huCD3x11B8"}, "B4": {"name": "bsIgG1-huCD3-H1L1-FEALxCD20-2F2-FEAR (bispecific antibody)", "heavy 1": "not shown", "light": "not shown", "heavy 2": "B2 heavy 2 with D15G, H30N, T57S, N77K", "VL": "B1 VL 2 with D93N, L96I, G100Q, K103R, V104L", "notes": "also called huCD3x2F2"}}, "key": {"human CD20": {"target": "T1, human CD20 (human, UniProt P11836 1-297)", "T1 construct": "whole, on cells; On Daudi and other human B cell lines, on human B cells in blood, or transiently expressed in HEK293F cells (construct pEE12.4CD20HS-GA); also called wild type CD20; WT CD20", "T1 sequence (looked up)": "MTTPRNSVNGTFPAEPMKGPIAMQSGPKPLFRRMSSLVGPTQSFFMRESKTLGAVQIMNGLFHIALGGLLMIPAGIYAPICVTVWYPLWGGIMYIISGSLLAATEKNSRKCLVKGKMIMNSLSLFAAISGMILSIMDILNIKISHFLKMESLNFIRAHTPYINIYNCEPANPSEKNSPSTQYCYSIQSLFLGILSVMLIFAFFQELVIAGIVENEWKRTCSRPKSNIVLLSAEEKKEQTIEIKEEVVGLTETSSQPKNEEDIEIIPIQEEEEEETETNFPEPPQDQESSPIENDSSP", "test": "flow cytometry on HEK293F cells transiently expressing wild type CD20; PE-conjugated goat anti-human IgG F(ab')2; MFI", "protocol": "(§1) PCR was performed on a Tgradient Thermocycler 96 (Biometra) using a 35 cycle program of: +95° C. for 15 min, followed by 35 cycles of: +94° C. for 30 sec, anneal: 55° C. for 30 sec and extension: +72° C. for 2 min, followed by a final extension step at 72° C. for 10 min and subsequent storage at 4° C. The completed reactions were analyzed by agarose gel electrophoresis. See Table 11 for details of primer pairs used for colony PCR. DNA sequencing: Plasmid DNA samples were send to AGOWA (Berlin, Germany) for sequence analysis. Sequences were analyzed using the VectorNTI software package (Informax, Frederick, Md., USA).\n(§2) Mutagenesis: The mutagenesis was performed, using the QuikChange® XL Site-Directed Mutagenesis kit (Cat 200517-5, Lot 1120630, Stratagene Europe) according to the manufacturer's instructions. Mutagenesis reactions were concentrated using ethanol precipitation and transformed into either oneshot DH5α-TIR competent E. coli cells or electroporated into ElectroTen-Blue® Electroporation-Competent Cells. Colonies were checked by colony PCR and restriction digestion prior to transfection. […] Anti-CD20 Antibody binding: HEK293F cells were taken up in staining buffer (PBS supplemented with 0.1% BSA and 0.02% NaN₃) and added to round bottom plates (1-3×10⁵/well in 100 μL). […] After washing twice in staining buffer, cells were incubated in 50 μL secondary antibody at 4° C. for 30 min. As a secondary antibody, R-Phycoerythrin (PE)-conjugated goat-anti-human IgG F(ab′)₂ was used, as described supra. Next, cells were washed once in staining buffer, re-suspended in 150 μL staining buffer and analyzed on a flow cytometer (FACSCanto-720, Becton Dickinson, San Diego, Calif., USA) and 10,000 events per sample were acquired at high flow rate. Binding curves were analyzed using non-linear regression (sigmoidal dose-response with variable slope) using GraphPad Prism V75.04 software (GraphPad Software, San Diego, Calif., USA)."}, "human CD3": {"target": "T2, human CD3 (human, UniProt P07766 22-207)", "T2 construct": "CD3 as part of the TCR complex on Jurkat cells or human T cells; also called human CD3ε (epsilon)", "T2 sequence (P07766 22-207 limits assumed)": "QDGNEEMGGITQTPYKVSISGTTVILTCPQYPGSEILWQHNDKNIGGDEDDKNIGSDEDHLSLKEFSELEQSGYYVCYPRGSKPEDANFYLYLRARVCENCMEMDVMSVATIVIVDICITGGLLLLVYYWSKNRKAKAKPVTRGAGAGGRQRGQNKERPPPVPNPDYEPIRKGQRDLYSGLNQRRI", "test": "flow cytometry on Jurkat cells (CD3-positive, CD20-negative); PE-conjugated goat anti-human IgG F(ab')2; median FI (PE)", "protocol": "In addition to the non-activating mutations, L234F, L235E, D265A, on both arms, the bispecific antibody contained an F405L mutation on one arm and a K409R mutation on the other arm.\nCells (1×10⁵ cells/well) were incubated in polystyrene 96-well round-bottom plates (Greiner bio-one, cat. no. 650101) with serial dilutions of antibodies (range 0.041 to 30 μg/mL in 3-fold dilution steps [A-E] and 0.00061 to 10 μg/mL in 4-fold dilution steps [F-I]) in 100 μL PBS/0.1% BSA/0.02% azide (from here designated as staining buffer) at 4° C. for 30 min.\nAfter washing twice in staining buffer, cells were incubated in 50 μL secondary antibody at 4° C. for 30 min. As a secondary antibody, R-Phycoerythrin (PE)-conjugated goat-anti-human IgG F(ab′)₂ (cat. no. 109-116-098, Jackson ImmunoResearch Laboratories, Inc., West Grove, Pa.) diluted 1:200 in staining buffer, was used for all experiments. Next, cells were washed twice in staining buffer, re-suspended in 30 μL staining buffer and analyzed on an iQue screener (Intellicyt Corporation, USA) (for FIG. 1A-E) or re-suspended in 100 μL staining buffer and analyzed on a FACSCANTOII (BD Biosciences) (FIG. 1F-I). Binding curves were analyzed using non-linear regression (sigmoidal dose-response with variable slope) using GraphPad Prism V75.04 software (GraphPad Software, San Diego, Calif., USA)."}, "CD20-AxP [1]": {"target": "T3, CD20-AxP (human, UniProt P11836 1-297)", "T3 construct": "whole, on cells; Transiently expressed in HEK293F cells; also called AxP mutant; CD20 mutant (CD20-AxP)", "T3 sequence (looked up)": "T1 sequence (looked up) with A170S, P172S", "test": "flow cytometry on HEK293F cells transiently expressing CD20-AxP (A170S/P172S); PE-conjugated goat anti-human IgG F(ab')2; MFI", "protocol": "as §1, §2"}, "CD20 KDD mutant [2]": {"target": "T4, CD20 KDD mutant (human, UniProt P11836 1-297)", "T4 construct": "whole, on cells; Transiently expressed in HEK293F cells; also called T159K/N163D/N166D", "T4 sequence (looked up)": "T1 sequence (looked up) with T159K, N163D, N166D", "test": "flow cytometry, HEK293F transfectants, MFI mutant/MFI wt at 10 µg/mL", "protocol": "(§3) As a secondary antibody, R-Phycoerythrin (PE)-conjugated goat-anti-human IgG F(ab′)₂ was used, as described supra. Next, cells were washed once in staining buffer, re-suspended in 150 μL staining buffer and analyzed on a flow cytometer (FACSCanto-720, Becton Dickinson, San Diego, Calif., USA) and 10,000 events per sample were acquired at high flow rate. Binding curves were analyzed using non-linear regression (sigmoidal dose-response with variable slope) using GraphPad Prism V75.04 software (GraphPad Software, San Diego, Calif., USA).\n(§4) Numbers indicate the percentage of binding to the CD20 mutants, relative to binding to wild type CD20, at 10 μg/mL. The percentage of binding was calculated by the following formula: (MFI binding to CD20 mutant)/(MFI binding CD20 wt) × 100%"}, "CD20-AxP [3]": {"target": "T3, CD20-AxP", "test": "flow cytometry, HEK293F transfectants, MFI mutant/MFI wt at 10 µg/mL", "protocol": "as §3, §4"}, "CD20 KDD mutant [4]": {"target": "T4, CD20 KDD mutant", "test": "flow cytometry, HEK293F cells expressing CD20 KDD mutant", "protocol": "as §1, §2"}}, "note": "Numbering of substitutions follows the chain as printed.", "data": [{"binder": "B1", "values": [{"measurement": "EC50 (read off the curve)", "setting": "human CD20", "value": "~0.1", "unit": "µg/mL"}, {"measurement": "EC50 (read off the curve)", "setting": "human CD3", "value": "~0.06", "unit": "µg/mL"}, {"measurement": "EC50 (read off the curve)", "setting": "CD20-AxP [1]", "value": "~0.3", "unit": "µg/mL"}, {"measurement": "% of wt CD20 binding", "setting": "CD20 KDD mutant [2]", "value": 54, "unit": "%"}, {"measurement": "% of wt CD20 binding", "setting": "CD20-AxP [3]", "value": 118, "unit": "%"}]}, {"binder": "B2", "values": [{"measurement": "binding result", "setting": "CD20 KDD mutant [4]", "value": "no binding (tested: 0.0015-10 µg/mL)"}, {"measurement": "EC50 (read off the curve)", "setting": "human CD20", "value": "~0.1", "unit": "µg/mL"}, {"measurement": "EC50 (read off the curve)", "setting": "CD20-AxP [1]", "value": "~0.2", "unit": "µg/mL"}, {"measurement": "% of wt CD20 binding", "setting": "CD20 KDD mutant [2]", "value": 4, "unit": "%"}, {"measurement": "% of wt CD20 binding", "setting": "CD20-AxP [3]", "value": 103, "unit": "%"}]}, {"binder": "B3", "values": [{"measurement": "EC50 (read off the curve)", "setting": "human CD20", "value": "~0.1", "unit": "µg/mL"}, {"measurement": "EC50 (read off the curve)", "setting": "CD20-AxP [1]", "value": "~0.2", "unit": "µg/mL"}, {"measurement": "% of wt CD20 binding", "setting": "CD20 KDD mutant [2]", "value": 67, "unit": "%"}, {"measurement": "% of wt CD20 binding", "setting": "CD20-AxP [3]", "value": 95, "unit": "%"}]}, {"binder": "B4", "values": [{"measurement": "binding result", "setting": "CD20 KDD mutant [4]", "value": "no binding (tested: 0.0015-10 µg/mL)"}, {"measurement": "EC50 (read off the curve)", "setting": "human CD20", "value": "~0.1", "unit": "µg/mL"}, {"measurement": "EC50 (read off the curve)", "setting": "CD20-AxP [1]", "value": "~0.2", "unit": "µg/mL"}, {"measurement": "% of wt CD20 binding", "setting": "CD20 KDD mutant [2]", "value": 4, "unit": "%"}, {"measurement": "% of wt CD20 binding", "setting": "CD20-AxP [3]", "value": 98, "unit": "%"}]}]}
